The numbers were not newly measured in paper PMC9696605 (Viruses, 2022), which cites them from elsewhere.

The data set concerns the target Fyn-SH3 (Homo sapiens, UniProt P06241). Conditions: phosphorylated MBP.

Chain of Fyn-SH3 (P06241 with tags, fused parts or gaps): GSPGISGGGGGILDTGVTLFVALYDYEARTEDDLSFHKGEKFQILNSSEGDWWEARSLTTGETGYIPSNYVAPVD

B1: phospho-MBP: phosphorylated myelin basic protein (protein, UniProt P02687 1-169, looked up)
Myelin basic protein: AAQKRPSQRSKYLASASTMDHARHGFLPRHRDTGILDSLGRFFGSDRGAPKRGSGKDGHHAARTTHYGSLPQKAQGHRPQDENPVVHFFKNIVTPRTPPPSQGKGRGLSLSRFSWGAEGQKPGFGYGGRASDYKSAHKGLKGHDAQGTLSKIFKLGGRDSRSGSPMARR
modifications: phosphorylated
notes: phosphorylated myelin basic protein
B1: the “Effect of MBP phosphorylation on interaction with Fyn-SH3” value was “phosphorylation weakens the interaction”.
